Measurements reported in the Human Domainome abundance scans (Beltran et al. 2025).
± gives the uncertainty stated by the source.

B1: POU domain, class 4, transcription factor 3, residues 185 to 256; numbered along this chain, Q15319 (parent)
chain: RELEAFAERFKQRRIKLGVTQADVGAALANLKIPGVGSLSQSTICRFESLTLSHNNMIALKPVLQAWLEEAE

Variants of: B1
Experiment: abundance fitness (aPCA) (normalised: wild type 0, dead -1); higher = more abundant; growth selection in yeast, the domain comes from the species named
Details: Homo sapiens

Abundance fitness: each site, then its substitutions
Q12: M -0.034 ± 0.048; N 0.189 ± 0.12; Y 0.121 ± 0.24; A 0.006 ± 0.095; I -0.172 ± 0.089; T -0.113 ± 0.056; K -0.115 ± 0.062; L -0.066 ± 0.032; D 0.012 ± 0.17; P -1.02 ± 0.17; R -0.187 ± 0.068; S -0.083 ± 0.047; G -0.377 ± 0.2; E 0.07 ± 0.31
R13: Q -0.069 ± 0.18; K -0.019 ± 0.067; T 0.108 ± 0.072; Y -0.133 ± 0.074; V -0.018 ± 0.033; C -0.265 ± 0.043; E -0.075 ± 0.066; I 0.05 ± 0.12; P -0.938 ± 0.28; W -0.297 ± 0.039; H 0.151 ± 0.13; D -0.234 ± 0.12; N -0.119 ± 0.13; A -0.01 ± 0.055; S 0.08 ± 0.049; M -0.094 ± 0.062; L -0.139 ± 0.037; F -0.247 ± 0.055
N30: C -0.261 ± 0.15; E -0.083 ± 0.091; Q -0.022 ± 0.099; H -0.051 ± 0.16; G -0.058 ± 0.12; P -0.267 ± 0.058; V -0.177 ± 0.046; R -0.148 ± 0.078; T -0.005 ± 0.11; F -0.276 ± 0.1; I -0.361 ± 0.15; D -0.184 ± 0.5; S -0.186 ± 0.098; L -0.279 ± 0.049; M -0.239 ± 0.12; W 0.007 ± 0.19
V24: T -0.565 ± 0.035; E -1.04 ± 0.23; P -0.842 ± 0.044; L -0.137 ± 0.024; S -0.785 ± 0.041; R -0.83 ± 0.038; C -0.223 ± 0.046; H -0.917 ± 0.11; W -0.61 ± 0.055; F -0.709 ± 0.036; A -0.142 ± 0.052; K -0.937 ± 0.087; D -0.675 ± 0.2; Y -0.962 ± 0.11; M -0.301 ± 0.041; Q -0.825 ± 0.075; I -0.123 ± 0.051; G -0.858 ± 0.075
A27: Y -0.084 ± 0.088; D -0.431 ± 0.23; F -0.283 ± 0.11; R -0.384 ± 0.14; T 0.205 ± 0.26; V -0.139 ± 0.047; L -0.233 ± 0.064; M -0.176 ± 0.11; W -0.202 ± 0.059; K -0.126 ± 0.11; E -0.123 ± 0.081; G -0.196 ± 0.046; C -0.266 ± 0.076
A29: F -0.086 ± 0.12; K 0.023 ± 0.056; Q 0.123 ± 0.11; R -0.114 ± 0.076; Y -0.305 ± 0.082; E 0.006 ± 0.18; D -0.25 ± 0.12; S -0.09 ± 0.086; V -0.2 ± 0.072; W -0.181 ± 0.074; M -0.119 ± 0.14; H -0.083 ± 0.14; N -0.053 ± 0.095; C 0.031 ± 0.085; L -0.21 ± 0.059; I -0.258 ± 0.25; G -0.022 ± 0.077
K16: F -0.284 ± 0.058; C 0.017 ± 0.051; A 0.055 ± 0.039; M 0.008 ± 0.039; V -0.099 ± 0.042; R -0.01 ± 0.027; G -0.129 ± 0.042; S 0.011 ± 0.027; P -0.968 ± 0.049; D -0.132 ± 0.32; Y -0.195 ± 0.091; W -0.224 ± 0.037; T -0.063 ± 0.033; I -0.192 ± 0.1; H -0.077 ± 0.045; E 0.077 ± 0.067
K11: T -0.276 ± 0.097; N -0.88 ± 0.24; M -0.125 ± 0.049; L -0.449 ± 0.037; P -0.751 ± 0.37; I -0.123 ± 0.055; V -0.186 ± 0.12; Q -0.136 ± 0.091; F -0.478 ± 0.063; S -0.208 ± 0.054; H -0.1 ± 0.17; E -0.945 ± 0.3; Y -0.474 ± 0.077
I15: S -0.183 ± 0.12; F -0.32 ± 0.078; C -0.223 ± 0.1; E -0.067 ± 0.079; H -0.37 ± 0.19; Y -0.32 ± 0.086; L -0.088 ± 0.044; P -0.915 ± 0.36; Q -0.321 ± 0.12; A -0.093 ± 0.15; N -0.147 ± 0.13; W -0.527 ± 0.32; K -0.052 ± 0.094; G -0.423 ± 0.14; V -0.098 ± 0.055; M 0.024 ± 0.061; T 0.02 ± 0.1; D -0.229 ± 0.071
G18: N -0.205 ± 0.33; S -0.435 ± 0.08; Q -0.193 ± 0.12; E -0.514 ± 0.14; F -0.784 ± 0.14; L -0.703 ± 0.064; Y -0.928 ± 0.29; C -0.572 ± 0.097; K -0.296 ± 0.15; A -0.43 ± 0.12; R -0.249 ± 0.11; V -0.997 ± 0.15; D -0.463 ± 0.21; W -1.05 ± 0.2; T -0.884 ± 0.2
A26: D -0.01 ± 0.052; P -0.472 ± 0.053; G -0.15 ± 0.03; Q -0.029 ± 0.045; N -0.041 ± 0.053; S -0.012 ± 0.025; Y -0.144 ± 0.044; L -0.027 ± 0.025; C -0.08 ± 0.04; E -0.051 ± 0.044; M -0.095 ± 0.035; W -0.152 ± 0.036; I -0.133 ± 0.068; R -0.017 ± 0.028; T -0.108 ± 0.039; F -0.113 ± 0.046; H -0.052 ± 0.058; K 0.04 ± 0.047; V -0.069 ± 0.026
A22: Q -0.214 ± 0.12; Y -0.115 ± 0.052; S -0.064 ± 0.035; W -0.329 ± 0.064; M -0.179 ± 0.1; P -0.469 ± 0.05; C -0.264 ± 0.051; L -0.265 ± 0.033; H -0.107 ± 0.073; K -0.263 ± 0.23; V -0.298 ± 0.05; I -0.5 ± 0.053; N -0.02 ± 0.074; F -0.163 ± 0.034; R -0.087 ± 0.037; D -0.176 ± 0.14; T -0.207 ± 0.054; G -0.055 ± 0.036
L17: M -0.099 ± 0.16; Y -0.448 ± 0.14; H -0.871 ± 0.24; N -0.474 ± 0.47; I -0.359 ± 0.22; V -0.682 ± 0.21; F -0.405 ± 0.12; Q -0.983 ± 0.34; R -0.543 ± 0.37; K -0.466 ± 0.19
L28: R -1.06 ± 0.47; D -0.716 ± 0.16; C -0.443 ± 0.21; E -0.985 ± 0.27; K -0.915 ± 0.19; F -0.239 ± 0.2; S -0.688 ± 0.12; M -0.095 ± 0.15; V -0.126 ± 0.079; G -0.813 ± 0.22; Y -0.49 ± 0.23; N -0.623 ± 0.12
T20: H -0.221 ± 0.068; A -0.229 ± 0.031; P -0.273 ± 0.026; E -0.18 ± 0.043; R -0.258 ± 0.022; I -0.623 ± 0.37; S -0.095 ± 0.073; Q -0.27 ± 0.028; N -0.318 ± 0.089; K -0.183 ± 0.031; D -0.562 ± 0.19; G -0.25 ± 0.03
D23: F -0.208 ± 0.21; N -0.112 ± 0.1; Y -0.411 ± 0.16; H -0.017 ± 0.23; T -0.307 ± 0.18; K -0.121 ± 0.19; M -0.135 ± 0.11; G -0.246 ± 0.49
Q21: E 0.081 ± 0.11; F -0.413 ± 0.11; N 0.112 ± 0.18; M -0.502 ± 0.17; P -0.238 ± 0.38; R -0.31 ± 0.17; V -0.002 ± 0.11; W -0.331 ± 0.094; G -0.429 ± 0.15; C -0.243 ± 0.34; L -0.192 ± 0.1; S -0.289 ± 0.074; H 0.294 ± 0.16; A -0.086 ± 0.12; I -0.035 ± 0.07; T -0.193 ± 0.21; K -0.285 ± 0.13; D -0.262 ± 0.42
R9: S 0.007 ± 0.083; G -0.198 ± 0.13; N -0.016 ± 0.1; P -0.642 ± 0.48; C -0.141 ± 0.1; A -0.045 ± 0.077; K 0.022 ± 0.047; M 0.111 ± 0.045; I -0.192 ± 0.084; H -0.018 ± 0.1; W -0.146 ± 0.1; T 0.016 ± 0.054; Y -0.025 ± 0.091; E 0.033 ± 0.075; F -0.33 ± 0.039
E8: S -0.033 ± 0.055; M -0.003 ± 0.059; W -0.2 ± 0.051; N -0.434 ± 0.35; T 0.053 ± 0.065; P -0.698 ± 0.19; G -0.098 ± 0.051; Y -0.236 ± 0.13; Q 0.073 ± 0.091; I 0 ± 0.12
F10: W -0.287 ± 0.09; M -0.881 ± 0.3; L -0.697 ± 0.27; G -1.03 ± 0.068; R -0.653 ± 0.33; I -0.813 ± 0.3; V -0.765 ± 0.1
V19: L 0.011 ± 0.03; Q -0.151 ± 0.055; H 0.007 ± 0.054; F 0.03 ± 0.048; S -0.14 ± 0.029; K 0.078 ± 0.029; N -0.154 ± 0.077; Y -0.01 ± 0.066; G -0.391 ± 0.25; T -0.192 ± 0.039; M 0.12 ± 0.058; P -0.835 ± 0.048
L31: F -0.034 ± 0.14; A 0.204 ± 0.23; D 0 ± 0.49; E 0.143 ± 0.37; G -0.59 ± 0.42; C 0.352 ± 0.23
R14: T -1.15 ± 0.18; A -1.1 ± 0.18; D -0.454 ± 0.16; F -1.11 ± 0.22; V -0.759 ± 0.071; S -1.06 ± 0.12; Q -0.45 ± 0.13; N -1.02 ± 0.25; C -0.887 ± 0.13; I -0.656 ± 0.19; G -0.951 ± 0.13; M -0.945 ± 0.084; E -0.95 ± 0.34; L -0.805 ± 0.058
G25: A 0.117 ± 0.11; W -0.317 ± 0.14; M -0.27 ± 0.11; S -0.13 ± 0.13; V 0.05 ± 0.069; C 0.143 ± 0.099; D -0.392 ± 0.25; E -0.054 ± 0.17; F -0.13 ± 0.098; Q -0.531 ± 0.36; N -0.963 ± 0.49; H -0.269 ± 0.21; L -0.159 ± 0.097; R -0.203 ± 0.12; K -0.311 ± 0.37
